Experimental data reported in article PMC8080076.

Target: DEC205 (human (endogenous in blood DCs)) (UniProt O60449)
Test: flow cytometry on cells

UniProt O60449, sequence (O60449 28-1722): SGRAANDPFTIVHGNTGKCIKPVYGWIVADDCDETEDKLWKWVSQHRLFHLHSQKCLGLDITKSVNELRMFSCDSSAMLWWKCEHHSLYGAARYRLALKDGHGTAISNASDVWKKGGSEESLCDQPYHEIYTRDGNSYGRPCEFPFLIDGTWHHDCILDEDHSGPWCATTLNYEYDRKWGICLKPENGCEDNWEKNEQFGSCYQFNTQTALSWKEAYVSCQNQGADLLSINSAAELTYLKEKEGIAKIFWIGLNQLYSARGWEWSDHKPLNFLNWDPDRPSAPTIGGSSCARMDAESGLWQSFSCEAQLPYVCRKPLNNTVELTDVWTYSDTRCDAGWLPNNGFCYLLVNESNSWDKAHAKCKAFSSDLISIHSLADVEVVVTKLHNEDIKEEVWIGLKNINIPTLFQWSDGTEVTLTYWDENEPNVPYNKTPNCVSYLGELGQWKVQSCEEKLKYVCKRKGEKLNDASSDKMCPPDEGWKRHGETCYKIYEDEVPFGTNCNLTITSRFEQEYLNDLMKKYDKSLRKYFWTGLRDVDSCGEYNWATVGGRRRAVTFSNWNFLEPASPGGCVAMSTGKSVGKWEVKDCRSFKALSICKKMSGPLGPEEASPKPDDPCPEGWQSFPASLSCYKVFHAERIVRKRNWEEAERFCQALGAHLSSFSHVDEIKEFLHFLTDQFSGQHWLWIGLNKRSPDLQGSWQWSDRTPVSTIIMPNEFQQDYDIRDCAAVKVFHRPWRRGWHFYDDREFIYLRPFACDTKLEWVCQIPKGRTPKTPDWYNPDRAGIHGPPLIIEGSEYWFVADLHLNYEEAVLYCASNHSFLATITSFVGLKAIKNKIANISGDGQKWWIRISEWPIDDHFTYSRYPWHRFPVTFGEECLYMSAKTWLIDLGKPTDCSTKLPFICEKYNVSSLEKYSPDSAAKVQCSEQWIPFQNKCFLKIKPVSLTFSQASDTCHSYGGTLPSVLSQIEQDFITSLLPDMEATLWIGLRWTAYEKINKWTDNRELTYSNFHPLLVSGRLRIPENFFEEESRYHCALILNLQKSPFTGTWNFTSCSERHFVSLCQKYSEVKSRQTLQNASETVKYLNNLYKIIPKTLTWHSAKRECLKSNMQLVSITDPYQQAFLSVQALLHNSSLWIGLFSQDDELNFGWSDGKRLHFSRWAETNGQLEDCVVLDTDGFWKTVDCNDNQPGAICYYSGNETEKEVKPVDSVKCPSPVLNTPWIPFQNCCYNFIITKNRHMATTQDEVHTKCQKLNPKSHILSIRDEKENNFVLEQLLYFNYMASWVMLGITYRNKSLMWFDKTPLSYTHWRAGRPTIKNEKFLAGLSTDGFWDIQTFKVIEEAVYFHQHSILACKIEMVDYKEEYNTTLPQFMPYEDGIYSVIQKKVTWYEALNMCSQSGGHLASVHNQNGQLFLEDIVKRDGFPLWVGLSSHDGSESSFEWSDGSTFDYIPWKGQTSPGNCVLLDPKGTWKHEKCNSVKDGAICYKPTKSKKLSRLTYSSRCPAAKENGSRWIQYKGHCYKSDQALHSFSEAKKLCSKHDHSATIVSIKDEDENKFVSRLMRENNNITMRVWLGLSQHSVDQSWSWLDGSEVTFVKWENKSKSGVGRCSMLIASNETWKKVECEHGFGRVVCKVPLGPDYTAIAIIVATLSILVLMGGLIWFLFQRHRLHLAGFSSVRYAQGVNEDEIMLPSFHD

percent of DEC205+ DCs bound by FITC-PDI: > 50%
Substance: FITC-labeled HDM-derived PDI, recombinant (enzyme)
